Results taken from US7947279B2, “Peptide having hydrolase activity” (The Trustees of Columbia University in the City of New York, priority 2005, dated 2011).
Entries after “also recorded” stand apart in the source; their conditions may differ.

Key:
[1] = tested on: BST at the Schaffer collateral/CA1 connection of hippocampal slices; test: Basal synaptic transmission (BST) in hippocampal slices; assay type: cell-based, mouse; details: for BST in WT slices (words): fusion protein 20 nM 1 hr or Aβ 200 nM 20 min, alone
[2] = tested on: SY5Y neuroblastoma cells transfected with a degron CL1-GFP expression vector; test: Proteasome reporter assay (GFP^u); assay type: cell-based, human; details: fusion protein 20 nM with Aβ
In short: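 SH-SY5Y neuroblastoma cells stably expressing GFP fused to CL1 degron (GFP^u) in DMEM with 15% FBS. After treatment, GFP^u levels quantified by densitometry of anti-GFP immunoblots of total extracts (10 ug/lane), normalized to ERK.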

mice (WT and APP/PS1) = test: Contextual and cued fear conditioning; assay type: in vivo, mouse; details: for contextual freezing of APP/PS1 mice 1 day after training: 0.02-0.04 g/kg i.p. 4 hrs before training, 3-5 month-old
Experimental: Behavioral Studies: Fear conditioning was performed in a conditioning chamber as previously described (Bourtchuladze et al., 1994; Gong et al., 2004). For contextual and cued fear conditioning mice were placed in the conditioning chamber for 2 min before the onset of a discrete tone (CS) (a 30 sec sound at 2800 Hz and 85 dB). In the last 2 sec of the CS, mice were given a foot shock (US) of 0.50 mA for 2 sec through the bars of the floor. After the CS/US pairing, the mice were left in the conditioning chamber for another 30 sec and then placed back in their home cages. Freezing behavior, defined as the absence of all movement except for that necessitated by breathing, was scored using Freezeview software. To evaluate contextual fear learning, freezing was measured for 5 min in the chamber in which the mice were trained 24 hrs after training. To evaluate cued fear conditioning, following contextual testing, the mice were placed in a novel context (triangular cage with smooth flat floor and with vanilla odorant) for 2 min (pre-CS test), after which they were exposed to the CS for 3 min (CS test), and freezing was measured. To evaluate the contextual fear over time, mice were placed for 5 min in the chamber in which the mice were trained 7- 14- 21-days after training. Sensory perception of the shock was determined through threshold assessment. Each animal was placed individually into the conditioning chamber. […] Animal behavior was evaluated for the first visible response to the shock (flinch), the first extreme motor response (run/jump), and the first vocalized distress (scream). Threshold to flinching, jumping, and screaming was quantified for each animal by averaging of the shock intensity at which each animal manifested a behavioral response of that type to the foot shock. Visual, motor, and motivation skills were also tested with visible platform training by measuring the time and the speed to reach a visible platform placed within a pool filled with water (Gong et al., 2004). Both time to reach the platform and swimming speed were recorded and analyzed with a video tracking system (HVS-2020, HVS Image, UK). No difference was observed among different groups of mice in the experiments in which fear conditioning was tested both in the presence of LDN and TAT fusion proteins. To decide the time of administration of LDN, experiments were performed in which the inhibitor was injected intra-peritoneally at different intervals (4 hrs before, 1 hr before, 1 hr after and 4 hrs after) from the electric shock. During the training phase, no difference was found in the freezing of LDN- or vehicle-injected mice.

phospho-CREB at Ser-133 = test: Phospho-CREB (Ser-133) Western blot in hippocampal cultures; assay type: cell-based, rat
In short: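 Rat E18 hippocampal neurons cultured serum-free to 5 DIV, lysed in RIPA (pH 7.4, with phosphatase and protease inhibitors). Lysates resolved by SDS-PAGE and immunoblotted with anti-pCREB, HRP detection; band intensities quantified by densitometry and normalized to total ERK1/2.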

[3] = tested on: CA1-LTP in hippocampal slices; test: CA1-LTP in hippocampal slices (theta-burst); assay type: cell-based, mouse; details: for Aβ-induced impairment of CA1-LTP (words): fusion protein 20 nM 1 hr, then plus Aβ 200 nM 20 min; for LTP in slices not treated with Aβ (words): fusion protein 20 nM, 3 theta-burst trains
[4] = 12-18 month APP/PS1 slices, 20 nM 1 hr
[5] = listed as Uch-L1 fusion protein
[6] = listed as TAT-HA-Uch-L1 peptide
[7] = 20 nM, 1 hr, listed as TAT-Uch-L1 fusion protein

B1: TAT-HA-Uch-L1: fusion protein: 11-amino acid transduction domain of HIV-transactivator protein (TAT) fused with an HA tag and human Uch-L1 (protein)
chain: MQLKPMEINPEMLNKVLSRLGVAGQWRFVDVLGLEEESLGSVPAPACALLLLFPLTAQHENFRKKQIEELKGQEVSPKVYFMKQTIGNSCGTIGLIHAVANNQDKLGFEDGSVLKQFLSETEKMSPEDRAKCFEKNEAIQAAHDAVAQEGQCRVDDKVNFHFILFNNVDGHLYELDGRMPFPVNHGASSEDTLLKDAAKVCREFTEREQGEVRFSAVALCKAA
modifications: left off: small tags and cut ends
**Q.** B1 was tested. Which “BST in slices from 12-18 month-old APP/PS1 mice” value ([1]; 20 nM, 1 hr) did it give?
**A.** also improved; also recorded: improved BST

**Q.** And the BST [1, 4]?
**A.** about 94 % that of TAT-HA-treated WT mice

**Q.** And the “BST in WT slices (words)” value [1]?
**A.** did not reveal any significant difference among treatments; also recorded: does not affect CA1-BST

**Q.** What about the “BST in WT slices (words)” value [1, 5] of the same molecule?
**A.** does not affect

**Q.** And the “Aβ-induced increase of GFP^u” value [2]?
**A.** reversed

**Q.** What about the “Aβ-induced increase of GFP^u” value [2, 6] of the same molecule?
**A.** blocked the increase of GFP^u

**Q.** What about the “contextual freezing of APP/PS1 mice 1 day after training” value (mice (WT and APP/PS1)) of the same molecule?
**A.** failed to re-establish normal freezing; also recorded: does not improve learning the day after training

**Q.** And the “contextual freezing of APP/PS1 mice 1 day after training” value (mice (WT and APP/PS1); listed as TA-HA-Uch-L1)?
**A.** failed to re-establish normal freezing

**Q.** And the “freezing responses of WT mice” value (mice (WT and APP/PS1); 0.02-0.04 g/kg i.p., listed as TA-HA-Uch-L1)?
**A.** had no effect

**Q.** And the “freezing responses of WT mice” value (mice (WT and APP/PS1); 0.02-0.04 g/kg, i.p.)?
**A.** did not change the freezing time; also recorded: had no effect

**Q.** What about the “contextual freezing of APP/PS1 mice at 7, 14 and 21 days after training” value (mice (WT and APP/PS1); single injection 0.02-0.04 g/kg i.p. 4 hrs prior to training) of the same molecule?
**A.** greatly increased the freezing time; also recorded: improves the retention of contextual fear conditioning; also recorded: re-established normal freezing time

**Q.** What about the “effect of Aβ on glutamate-induced CREB phosphorylation (words)” value (phospho-CREB at Ser-133; fusion protein 100 nM, 3 μM Aβ 24 hrs, 50 μM glutamate 15 min) of the same molecule?
**A.** totally blocked the effect of Aβ on CREB phosphorylation; also recorded: re-established; also recorded: completely opposed

**Q.** And the “levels of phospho-CREB” value (phospho-CREB at Ser-133; fusion protein alone, no glutamate)?
**A.** did not affect levels of phospho-CREB

**Q.** What about the “LTP in slices from 4 month-old APP/PS1 mice” value ([3]; 20 nM, 1 hr) of the same molecule?
**A.** far greater potentiation; also recorded: elevated above vehicle treated slices; also recorded: completely reversed

**Q.** And the “LTP in slices from 4 month-old WT mice” value ([3]; 20 nM, 1 hr)?
**A.** did not change the amplitude of LTP; also recorded: had no effect on LTP amplitude

**Q.** What about the “LTP in slices from 12-18 month-old APP/PS1 mice” value ([3]; 20 nM, 1 hr) of the same molecule?
**A.** greater potentiation; also recorded: had a beneficial effect; also recorded: reversed the impairment of LTP

**Q.** What about the “LTP in slices from 12-18 month-old WT mice” value ([3]; 20 nM, 1 hr) of the same molecule?
**A.** did not change the amplitude of LTP; also recorded: did not vary the amounts of potentiation; also recorded: did not affect LTP

**Q.** What about the “LTP in slices from 12-18 month-old APP/PS1 mice” value [3, 7] of the same molecule?
**A.** reverses the decrease of LTP

**Q.** What about the “LTP in slices from 12-18 month-old WT mice” value [3, 7] of the same molecule?
**A.** does not affect LTP

**Q.** And the “Levels of LTP at 120 minutes after tetanus” value (shortened to “Levels of LTP at 120 minutes”) ([3]; 4 month APP/PS1 slices, 20 nM 1 hr)?
**A.** about 94 % those of TAT-HA-treated WT littermates

**Q.** What about the “Levels of LTP at 120 minutes” value ([3]; 4 month WT slices, 20 nM 1 hr) of the same molecule?
**A.** about 98 % those of vehicle-treated WT slices

**Q.** And the “levels of LTP” value [3, 4]?
**A.** about 82 % that of TAT-HA-treated WT littermates

**Q.** And the “Levels of LTP at 120 minutes” value ([3]; 12-18 month WT slices, 20 nM 1 hr)?
**A.** 98.5 % of those of TAT-HA-treated WT slices

**Q.** And the “rescue of LTP at different concentrations, S18Y versus TAT-HA-Uch-L1 (words)” value ([3]; 1 hr pre-treatment, then Aβ 200 nM 20 min, as low as 5 nM)?
**A.** No difference was detected; also recorded: no difference between the two forms

**Q.** And the “LTP induced by weak tetanus” value ([3]; WT slices, 1 theta-burst train instead of 3)?
**A.** enhanced LTP; also recorded: increases LTP

**Q.** What about the “Aβ-induced impairment of CA1-LTP (words)” value [3] of the same molecule?
**A.** protected against LTP suppression; also recorded: completely reversed

**Q.** What about the “Aβ-induced impairment of CA1-LTP (words)” value [3, 6] of the same molecule?
**A.** protected against LTP suppression

**Q.** What about the “Aβ-induced impairment of CA1-LTP (words)” value ([3]; listed as TAT-Uch-L1 fusion protein) of the same molecule?
**A.** reversed; also recorded: rescued

**Q.** And the “Aβ-induced impairment of CA1-LTP (words)” value [3, 5]?
**A.** reverses the deficits of LTP

**Q.** And the “LTP in slices not treated with Aβ (words)” value ([3]; 1 hr, WT slices)?
**A.** did not change the amplitude of LTP; also recorded: had no effect on LTP; also recorded: did not affect the amounts of potentiation; also recorded: did not affect LTP

**Q.** What about the “LTP in slices not treated with Aβ (words)” value ([3]; 1 hr, WT slices, listed as Uch-L1 fusion protein) of the same molecule?
**A.** does not affect

**Q.** And the “baseline transmission in slices without tetanic stimulation” value ([3]; non-tetanized slices)?
**A.** did not modify the baseline; also recorded: had no effect on basal synaptic responses; also recorded: did not affect baseline transmission; also recorded: did not affect basal transmission; also recorded: Neither TAT-HA-Uch-L1 nor TAT-HA-iUch-L1 affected baseline transmission
